Data taken from patent publication US12421510B2, “Peptide, a complex and a method for treating cancer” (TECHNION RESEARCH & DEVELOPMENT FOUNDATION LIMITED, priority 2018, dated 2025).

Target: T1, p105 (Homo sapiens, UniProt P19838)
T1 sequence (P19838 1-968): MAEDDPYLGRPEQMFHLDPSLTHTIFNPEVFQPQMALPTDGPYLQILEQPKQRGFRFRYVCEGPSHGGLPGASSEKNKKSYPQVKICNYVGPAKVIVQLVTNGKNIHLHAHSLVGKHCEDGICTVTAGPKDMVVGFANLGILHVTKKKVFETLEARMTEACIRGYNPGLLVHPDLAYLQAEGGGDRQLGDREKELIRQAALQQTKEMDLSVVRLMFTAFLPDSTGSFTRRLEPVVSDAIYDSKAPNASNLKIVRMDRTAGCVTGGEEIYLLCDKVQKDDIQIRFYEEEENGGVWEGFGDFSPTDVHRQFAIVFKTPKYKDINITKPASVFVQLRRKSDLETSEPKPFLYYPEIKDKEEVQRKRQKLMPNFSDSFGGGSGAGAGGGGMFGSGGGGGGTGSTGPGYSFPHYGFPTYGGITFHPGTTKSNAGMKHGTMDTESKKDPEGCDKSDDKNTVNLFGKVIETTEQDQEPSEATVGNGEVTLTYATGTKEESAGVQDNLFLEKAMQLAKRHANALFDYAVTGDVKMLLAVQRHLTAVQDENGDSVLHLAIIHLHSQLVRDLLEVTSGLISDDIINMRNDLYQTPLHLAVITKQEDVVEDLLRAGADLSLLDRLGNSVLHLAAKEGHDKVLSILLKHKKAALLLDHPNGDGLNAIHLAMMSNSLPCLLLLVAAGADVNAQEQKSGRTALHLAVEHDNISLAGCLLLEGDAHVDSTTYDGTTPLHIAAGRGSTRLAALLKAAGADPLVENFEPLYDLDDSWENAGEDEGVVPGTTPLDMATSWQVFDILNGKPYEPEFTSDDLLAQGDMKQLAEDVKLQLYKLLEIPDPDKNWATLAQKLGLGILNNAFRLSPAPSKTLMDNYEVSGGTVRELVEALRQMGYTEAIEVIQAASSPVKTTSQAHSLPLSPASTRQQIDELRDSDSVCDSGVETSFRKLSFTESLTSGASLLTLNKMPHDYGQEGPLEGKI
Assay: Co-immunoprecipitation (Co-IP) of KPC1 species with p105-HA from transfected HEK293T cells
Format: binding
Parameters: HA; expressed in transfected cells; host or cells: HEK293T
Details: anti-FLAG immunoprecipitation, anti-NF-κB1 western blot
From the text: FIG. 1B is a western blot showing the following: HEK293T cells were transfected with cDNAs coding for p105-HA (lanes 1-6), along with the different KPC1 species as following: W.T KPC1 (lane 1), KPC1Δ969-1314 (lane 2), KPC1Δ1-438 & 1039-1314 (lane 3), KPC1Δ1-967 (lane 4) and KPC1Δ1-1042 (lane 5). Lane 6 was transfected with an empty vector. KPC1 species were immunoprecipitated using immobilized FLAG antibodies, resolved by SDS-page, and NF-κB1 and KPC1 proteins were visualized by anti-NF-κB1 (FIG. 1B (upper)) and anti-FLAG (FIG. 1B (bottom)) antibodies, respectively. 10% of the total cell lysate was analyzed for the expression of p105-HA.
FIG. 2B is a western blot. HEK293T cells were transfected with cDNAs coding for p105-HA (lanes 1-7), along with different KPC1 species as following: WT KPC1 (lane 1), KPC1Δ1-967 (lane 2), KPC1Δ967-1043 (lane 3), KPC1Δ1-973 (lane 4), KPC1Δ1-1017 (lane 5) and KPC1ΔCC domain (lane 6). Lane 7 represents cells that were transfected with empty vector. KPC1 species were immunoprecipitated using immobilized FLAG antibodies, resolved by SDS-page. NF-κB1 and KPC1 proteins were visualized with anti-NF-κB1 (FIG. 2B (i)) and anti-FLAG (FIG. 2B (ii)) antibodies, respectively. 10% of the total cell lysate was analyzed for the expression of p105-HA. FIGS. 3A and 3B: FIG. 3A is a schematic representation of KPC1 species used in the experiment shown in FIG. 3B that was directed to evaluating the region of KPC1 that is responsible for the interaction with p105.
FIG. 3B is a western blot. HEK293T cells were transfected with cDNAs coding for p105-HA (lanes 1-12), along with different KPC1 species as following: KPC1-FLAG (lane 1), WILVRLW-KPC1 Δ 1-1253 (SEQ ID NO: 8) (lane 2), ILVRLW-KPC1 Δ 1-1253 (SEQ ID NO: 10) (lane 3), LVRLW-KPC1 Δ 1-1253 (SEQ ID NO: 11) (lane 4), VRLW-KPC1 Δ 1-1253 (lane 5) (SEQ ID NO: 12), RLW-KPC1 Δ 1-1253 (lane 6) SEQ ID NO:13), KPC1 Δ 1-1253 (lane 7), WILVRL-KPC1 Δ 1-1253 (lane 8) (SEQ ID NO: 14), WILVR-KPC1 Δ 1-1253 (SEQ ID NO: 15) (lane 9), WILV-KPC1 Δ 1-1253 (SEQ ID NO: 16) (lane 10), WIL-KPC1 Δ 1-1253 (SEQ ID NO: 17 (lane 11). Lane 12 represents cells that were transfected with empty vector. KPC1 species were immunoprecipitated using immobilized FLAG antibodies, resolved by SDS-page. NF-κB1 and KPC1 proteins were visualized by anti-NF-κB1 (FIG. 3B, (i, ii) and anti-FLAG (FIG. 3B, (iii) antibodies, respectively. 10% of the total cell lysate was analyzed for the expression of p105-HA (FIG. 3B, (ii)).
HEK293T cells were transiently transfected with the various KPC1 species along with p105-HA using the j etPEI reagent. 48 hours after transfection, the cells were harvested and lysed with RIPA buffer [150 mM NaCl, 0.5% sodium deoxycholate, 50 mM Tris-HCl (pH 8.0), 0.1% SDS, and 1% NP-40, supplemented with freshly added protease inhibitors mixture]. KPC1 species proteins were immunoprecipitated with immobilized anti-FLAG, with subsequent washing of the beads five times with RIPA buffer. The immunoprecipitated proteins were resolved by SDS-PAGE (10%, FIGS. 1A, 1B, 2A and 2B, with a gel gradient, of 4-20%; FIGS. 3A and 3B), and blotted onto nitrocellulose (FIGS. 1A, 1B, 2A and 2B) or PVDF (FIGS. 3A and 3B) membranes. p105 and KPC1 species were visualized using anti-NF-κB1 or anti-FLAG antibodies, respectively.
Identification of the region of KPC1 that is responsible for the interaction with p105. In order to identify the region of KPC1 that is responsible for the interaction with p105, several truncated segments of the DNA sequence of the KPC1 protein were cloned. The truncated segments were inserted into the pCAGGS expression vector to analyze their interaction with p105 by co-immunoprecipitation (Co-IP) from cells. HEK 293T cells were transfected with cDNAs coding for p105-HA, along with different fragments of KPC1 (FIG. 1A). Species of KPC1 were immunoprecipitated using an immobilized anti-Flag antibody. […]

Molecule	interaction with p105 (Co-IP)
WILVRLW-KPC1Δ1-1253: KPC1 lacking amino acids 1-1253 with WILVRLW at its N-terminus, SEQ ID NO: 8 (protein) WILVRLWCPICYAHPISAVFQPCGHKSCKACINQHLMNNKDCFFCKTTIVSVEDWEKGANTSTTSSAA	An interaction was observed
KPC1ΔCC: KPC1 species that lacks the amino acids 1041-1061 (coiled coil domain) (protein) MASKGAGMSFSRKSYRLTSDAEKSRVTGIVQEKLLNDYLNRIFSSSEHAPPAATSRKPLNFQNLPEHLDQLLQVDNEEEESQGQVEGRLGPSTVVLDHTGGFEGLLLVDDDLLGVIGHSNFGTIRSTTCVYKGKWLYEVLISSQGLMQIGWCTISCRFNQEEGVGDTHNSYAYDGNRVRKWNVTTTNYGKAWAAGDIVSCLIDLDDGTLSFCLNGVSLGTAFENLSRGLGMAYFPAISLSFKESVAFNFGSRPLRYPVAGYRPLQDPPSADLVRAQRLLGCFRAVLSVELDPVEGRLLDKESSKWRLRGQPTVLLTLAHIFHHFAPLLRKVYLVEAVLMSFLLGIVEKGTPTQAQSVVHQVLDLLWLFMEDYEVQDCLKQLMMSLLRLYRFSPIVPDLGLQIHYLRLTIAILRHEKSRKFLLSNVLFDVLRSVVFFYIKSPLRVEEAGLQELIPTTWWPHCSSREGKESTEMKEETAEERLRRRAYERGCQRLRKRIEVVEELQVQILKLLLDNKDDNGGEASRYIFLTKFRKFLQENASGRGNMPMLCPPEYMVCFLHRLISALRYYWDEYKASNPHASFSEEAYIPPQVFYNGKVDYFDLQRLGGLLSHLRKTLKDDLASKANIVIDPLELQSTAMDDLDEDEEPAPAMAQRPMQALAVGGPLPLPRPGWLSSPTLGRANRFLSTAAVSLMTPRRPLSTSEKVKVRTLSVEQRTREDIEGSHWNEGLLLGRPPEEPEQPLTENSLLEVLDGAVMMYNLSVHQQLGKMVGVSDDVNEYAMALRDTEDKLRRCPKRRKDILAELTKSQKVFSEKLDHLSRRLAWVHATVYSQEKMLDIYWLLRVCLRTIEHGDRTGSLFAFMPEFYLSVAINSYSALKNYFGPVHSMEELPGYEETLTRLAAILAKHFADARIVGTDIRDSLMQALASYVCYPHSLRAVERIPEEQRIAMVRNLLAPYEQRPWAQTNWILVRLWRGCGFGYRYTRLPHLLKTKLEDANLPSLQKPCPSTLLQQHMADLLQQGPDVAPSFLNSVLNQLNWAFVDSRQLKVCATCFDLSVSLLRVLEMTITLVPEIFLDWTRPTSEMLLRRLAQLLNQVLNRVTAERNLFDRVVTLRLPGLESVDHYPILVAVTGILVQLLVRGPASEREQATSVLLADPCFQLRSICYLLGQPEPPAPGTALPAPDRKRFSLQSYADYISADELAQVEQMLAHLTSASAQAAAASLPTSEEDLCPICYAHPISAVFQPCGHKSCKACINQHLMNNKDCFFCKTTIVSVEDWEKGANTSTTSSAA	An interaction
KPC1Δ1-973: KPC1 species that lacks the amino acids 1-973 (protein, UniProt Q5XPI4 974-1314, looked up, fragment) WRGCGFGYRYTRLPHLLKTKLEDANLPSLQKPCPSTLLQQHMADLLQQGPDVAPSFLNSVLNQLNWAFSEFIGMIQEIQQAAERLERNFVDSRQLKVCATCFDLSVSLLRVLEMTITLVPEIFLDWTRPTSEMLLRRLAQLLNQVLNRVTAERNLFDRVVTLRLPGLESVDHYPILVAVTGILVQLLVRGPASEREQATSVLLADPCFQLRSICYLLGQPEPPAPGTALPAPDRKRFSLQSYADYISADELAQVEQMLAHLTSASAQAAAASLPTSEEDLCPICYAHPISAVFQPCGHKSCKACINQHLMNNKDCFFCKTTIVSVEDWEKGANTSTTSSAA	the interaction between these two proteins was abrogated
KPC1Δ1-967: KPC1 species that lacks amino acids 1-967, SEQ ID NO: 5 (protein) WILVRLWRGCGFGYRYTRLPHLLKTKLEDANLPSLQKPCPSTLLQQHMADLLQQGPDVAPSFLNSVLNQLNWAFSEFIGMIQEIQQAAERLERNFVDSRQLKVCATCFDLSVSLLRVLEMTITLVPEIFLDWTRPTSEMLLRRLAQLLNQVLNRVTAERNLFDRVVTLRLPGLESVDHYPILVAVTGILVQLLVRGPASEREQATSVLLADPCFQLRSICYLLGQPEPPAPGTALPAPDRKRFSLQSYADYISADELAQVEQMLAHLTSASAQAAAASLPTSEEDLCPICYAHPISAVFQPCGHKSCKACINQHLMNNKDCFFCKTTIVSVEDWEKGANTSTTSSAA	an interaction was observed
KPC1Δ1-1017: KPC1 species that lacks the amino acids 1-1017 (protein, UniProt Q5XPI4 1018-1314, looked up, fragment) LLQQGPDVAPSFLNSVLNQLNWAFSEFIGMIQEIQQAAERLERNFVDSRQLKVCATCFDLSVSLLRVLEMTITLVPEIFLDWTRPTSEMLLRRLAQLLNQVLNRVTAERNLFDRVVTLRLPGLESVDHYPILVAVTGILVQLLVRGPASEREQATSVLLADPCFQLRSICYLLGQPEPPAPGTALPAPDRKRFSLQSYADYISADELAQVEQMLAHLTSASAQAAAASLPTSEEDLCPICYAHPISAVFQPCGHKSCKACINQHLMNNKDCFFCKTTIVSVEDWEKGANTSTTSSAA	did not interact with p105
